Measured values reported in paper PMC9179584 (2022).

B1: SMAD2 wild type, overexpressed from pCMV5b-SMAD2 [not stated] / SMAD Anchor for Receptor Activation (SARA) [human (endogenous in HT-1080)] (parent complex)
chain 1: MSSILPFTPPVVKRLLGWKKSAGGSGGAGGGEQNGQEEKWCEKAVKSLVKKLKKTGRLDELEKAITTQNCNTKCVTIPSTCSEIWGLSTPNTIDQWDTTGLYSFSEQTRSLDGRLQVSHRKGLPHVIYCRLWRWPDLHSHHELKAIENCEYAFNLKKDEVCVNPYHYQRVETPVLPPVLVPRHTEILTELPPLDDYTHSIPENTNFPAGIEPQSNYIPETPPPGYISEDGETSDQQLNQSMDTGSPAELSPTTLSPVNHSLDLQPVTYSEPAFWCSIAYYELNQRVGETFHASQPSLTVDGFTDPSNSERFCLGLLSNVNRNATVEMTRRHIGRGVRLYYIGGEVFAECLSDSAIFVQSPNCNQRYGWHPATVCKIPPGCNLKIFNNQEFAALLAQSVNQGFEAVYQLTRMCTIRMSFVKGWGAEYRRQTVTSTPCWIELHLNGPLQWLDKVLTQMGSPSVRCSSMS
chain 2: MENYFQAEAYNLDKVLDEFEQNEDETVSSTLLDTKWNKILDPPSHRLSFNPTLASVNESAVSNESQPQLKVFSLAHSAPLTTEEEDHCANGQDCNLNPEIATMWIDENAVAEDQLIKRNYSWDDQCSAVEVGEKKCGNLACLPDEKNVLVVAVMHNCDKRTLQNDLQDCNNYNSQSLMDAFSCSLDNENRQTDQFSFSINESTEKDMNSEKQMDPLNRPKTEGRSVNHLCPTSSDSLASVCSPSQLKDDGSIGRDPSMSAITSLTVDSVISSQGTDGCPAVKKQENYIPDEDLTGKISSPRTDLGSPNSFSHMSEGILMKKEPAEESTTEESLRSGLPLLLKPDMPNGSGRNNDCERCSDCLVPNEVRADENEGYEHEETLGTTEFLNMTEHFSESQDMTNWKLTKLNEMNDSQVNEEKEKFLQISQPEDTNGDSGGQCVGLADAGLDLKGTCISESEECDFSTVIDTPAANYLSNGCDSYGMQDPGVSFVPKTLPSKEDSVTEEKEIEESKSECYSNIYEQRGNEATEGSGLLLNSTGDLMKKNYLHNFCSQVPSVLGQSSPKVVASLPSISVPFGGARPKQPSNLKLQIPKPLSDHLQNDFPANSGNNTKNKNDILGKAKLGENSATNVCSPSLGNISNVDTNGEHLESYEAEISTRPCLALAPDSPDNDLRAGQFGISARKPFTTLGEVAPVWVPDSQAPNCMKCEARFTFTKRRHHCRACGKVFCASCCSLKCKLLYMDRKEARVCVICHSVLMNAQAWENMMSASSQSPNPNNPAEYCSTIPPLQQAQASGALSSPPPTVMVPVGVLKHPGAEVAQPREQRRVWFADGILPNGEVADAAKLTMNGTSSAGTLAVSHDPVKPVTTSPLPAETDICLFSGSITQVGSPVGSAMNLIPEDGLPPILISTGVKGDYAVEEKPSQISVMQQLEDGGPDPLVFVLNANLLSMVKIVNYVNRKCWCFTTKGMHAVGQSEIVILLQCLPDEKCLPKDIFNHFVQLYRDALAGNVVSNLGHSFFSQSFLGSKEHGGFLYVTSTYQSLQDLVLPTPPYLFGILIQKWETPWAKVFPIRLMLRLGAEYRLYPCPLFSVRFRKPLFGETGHTIMNLLADFRNYQYTLPVVQGLVVDMEVRKTSIKIPSNRYNEMMKAMNKSNEHVLAGGACFNEKADSHLVCVQNDDGNYQTQAISIHNQPRKVTGASFFVFSGALKSSSGYLAKSSIVEDGVMVQITAENMDSLRQALREMKDFTITCGKADAEEPQEHIHIQWVDDDKNVSKGVVSPIDGKSMETITNVKIFHGSEYKANGKVIRWTEVFFLENDDQHNCLSDPADHSRLTEHVAKAFCLALCPHLKLLKEDGMTKLGLRVTLDSDQVGYQAGSNGQPLPSQYMNDLDSALVPVIHGGACQLSEGPVVMELIFYILENIV
B2: SMAD3 wild type, overexpressed from pCMV5b-SMAD3 [not stated] / SMAD Anchor for Receptor Activation (SARA) [human (endogenous in HT-1080)] (parent complex)
chain 1: MSSILPFTPPIVKRLLGWKKGEQNGQEEKWCEKAVKSLVKKLKKTGQLDELEKAITTQNVNTKCITIPRSLDGRLQVSHRKGLPHVIYCRLWRWPDLHSHHELRAMELCEFAFNMKKDEVCVNPYHYQRVETPVLPPVLVPRHTEIPAEFPPLDDYSHSIPENTNFPAGIEPQSNIPETPPPGYLSEDGETSDHQMNHSMDAGSPNLSPNPMSPAHNNLDLQPVTYCEPAFWCSISYYELNQRVGETFHASQPSMTVDGFTDPSNSERFCLGLLSNVNRNAAVELTRRHIGRGVRLYYIGGEVFAECLSDSAIFVQSPNCNQRYGWHPATVCKIPPGCNLKIFNNQEFAALLAQSVNQGFEAVYQLTRMCTIRMSFVKGWGAEYRRQTVTSTPCWIELHLNGPLQWLDKVLTQMGSPSIRCSSVS
chain 2: B1 chain 2

Variants of: B1
Test: co-immunoprecipitation (IP: SMAD2, blot SARA) with densitometry; HT-1080 cells transiently transfected; ratio printed relative to the pCMV5b empty-vector lane = 1; parent: 1.2

Row | screen value | Variant
1 | 0.5 | chain 1 N381S

Variants of: B2
Test: co-immunoprecipitation (IP: SMAD3, blot SARA) with densitometry; HT-1080 cells transiently transfected; ratio printed relative to the pCMV5b empty-vector lane = 1; parent: 0.6

Row | screen value | Variant
2 | 0.2 | chain 1 N339S
